From patent US20240117018A1

Legend:
Experiment in all cases: cell-based or functional assay
[1] = molecular target: HIV-1 Env of pseudovirus 1006_11_C3_1601 (HIV-1)
[2] = molecular target: HIV-1 Env of pseudovirus 1012_11_TC21_3257 (HIV-1)
[3] = molecular target: HIV-1 Env of pseudovirus 1056_10_TA11_1826 (HIV-1)
[4] = molecular target: HIV-1 Env of pseudovirus 231965.c01 (HIV-1)
[5] = molecular target: HIV-1 Env of pseudovirus 249M B10 (HIV-1)
[6] = molecular target: HIV-1 Env of pseudovirus 3103.v3.c10 (HIV-1)
[7] = molecular target: HIV-1 Env of pseudovirus 3365.v2.c2 (HIV-1)
[8] = molecular target: HIV-1 Env of pseudovirus 3415.v1.c1 (HIV-1)
[9] = molecular target: HIV-1 Env of pseudovirus 6041.v3.c23 (HIV-1)
[10] = molecular target: HIV-1 Env of pseudovirus 6952.v1.c20 (HIV-1)
[11] = molecular target: HIV-1 Env of pseudovirus 7030102001E5(Rev-) (HIV-1)
[12] = molecular target: HIV-1 Env of pseudovirus BF1266.431a (HIV-1)
[13] = molecular target: HIV-1 Env of pseudovirus BJOX009000.02.4 (HIV-1)
[14] = molecular target: HIV-1 Env of pseudovirus C2101.c01 (HIV-1)
[15] = molecular target: HIV-1 Env of pseudovirus C3347.c11 (HIV-1)
[16] = molecular target: HIV-1 Env of pseudovirus CNE17 (HIV-1)
[17] = molecular target: HIV-1 Env of pseudovirus CNE19 (HIV-1)
[18] = molecular target: HIV-1 Env of pseudovirus CNE20 (HIV-1)
[19] = molecular target: HIV-1 Env of pseudovirus CNE21 (HIV-1)
[20] = molecular target: HIV-1 Env of pseudovirus CNE58 (HIV-1)
[21] = molecular target: HIV-1 Env of pseudovirus Ce1086_B2 (HIV-1)
[22] = molecular target: HIV-1 Env of pseudovirus Ce2060_G9 (HIV-1)
[23] = molecular target: HIV-1 Env of pseudovirus Du156.12 (HIV-1)
[24] = molecular target: HIV-1 Env of pseudovirus Du172.17 (HIV-1)
[25] = molecular target: HIV-1 Env of pseudovirus Du422.1 (HIV-1)
[26] = molecular target: HIV-1 Env of pseudovirus HIV-0013095-2.11 (HIV-1)
[27] = molecular target: HIV-1 Env of pseudovirus Q259.d2.17 (HIV-1)
[28] = molecular target: HIV-1 Env of pseudovirus Q461.e2 (HIV-1)
[29] = molecular target: HIV-1 Env of pseudovirus REJO4541.67 (HIV-1)
[30] = molecular target: HIV-1 Env of pseudovirus RHPA4259.7 (HIV-1)
[31] = molecular target: HIV-1 Env of pseudovirus SC422661.8 (HIV-1)
[32] = molecular target: HIV-1 Env of pseudovirus T257-31 (HIV-1)
[33] = molecular target: HIV-1 Env of pseudovirus T278-50 (HIV-1)
[34] = molecular target: HIV-1 Env of pseudovirus X2088_c9 (HIV-1)
[35] = molecular target: HIV-1 Env of pseudovirus ZM197M.PB7 (HIV-1)
[36] = molecular target: HIV-1 Env of pseudovirus ZM214M.PL15 (HIV-1)
[37] = molecular target: HIV-1 Env of pseudovirus ZM249M.PL1 (HIV-1)

Work on N49P7.1 (antibody) yielded an IC50 [1] of 0.061 µg/mL, an IC80 [1] of 0.193 µg/mL and an MPI [1] of 100. It also gave an IC50 [2] of 0.063 µg/mL, an IC80 [2] of 0.176 µg/mL and an MPI [2] of 100. For the same substance, the IC50 [3] was 0.171 µg/mL, the IC80 [3] was 0.603 µg/mL and the MPI [3] was 100. It also gave an IC50 (neutralisation, TZM.bl cells) [4] of 0.106 µg/mL, an IC80 (neutralisation, TZM.bl cells) [4] of 0.364 µg/mL and an MPI [4] of 100. It also gave an IC50 [5] of 0.053 µg/mL, an IC80 [5] of 0.225 µg/mL and an MPI [5] of 100. It also gave an IC50 (neutralisation, TZM.bl cells) [6] of 0.229 µg/mL, an IC80 (neutralisation, TZM.bl cells) [6] of 0.772 µg/mL and an MPI [6] of 100. It also gave an IC50 [7] of 0.088 µg/mL, an IC80 [7] of 0.289 µg/mL and an MPI [7] of 100. The IC50 [8] was 0.191 µg/mL, the IC80 [8] was 0.647 µg/mL and the MPI [8] was 100. It also gave an IC50 (neutralisation, TZM.bl cells) [9] of 0.078 µg/mL, an IC80 (neutralisation, TZM.bl cells) [9] of 0.366 µg/mL and an MPI [9] of 100. The IC50 (neutralisation, TZM.bl cells) [10] was 26.3 µg/mL, the IC80 (neutralisation, TZM.bl cells) [10] was > 50 µg/mL and the MPI [10] was 71. For the same substance, the IC50 [11] was 0.11 µg/mL, the IC80 [11] was 0.498 µg/mL and the MPI [11] was 100. For the same substance, the IC50 [12] was 0.033 µg/mL, the IC80 [12] was 0.11 µg/mL and the MPI [12] was 100. The IC50 [13] was 0.219 µg/mL, the IC80 [13] was 0.756 µg/mL and the MPI [13] was 100. It also gave an IC50 [14] of 0.076 µg/mL, an IC80 [14] of 0.425 µg/mL and an MPI [14] of 100. It also gave an IC50 [15] of 0.048 µg/mL, an IC80 [15] of 0.161 µg/mL and an MPI [15] of 100. The IC50 [16] was 0.254 µg/mL, the IC80 [16] was 0.86 µg/mL and the MPI [16] was 100. The IC50 [17] was 0.027 µg/mL, the IC80 [17] was 0.128 µg/mL and the MPI [17] was 100. It also gave an IC50 [18] of 0.079 µg/mL, an IC80 [18] of 0.224 µg/mL and an MPI [18] of 100. It also gave an IC50 [19] of 1.58 µg/mL, an IC80 [19] of 12.2 µg/mL and an MPI [19] of 96. The IC50 [20] was 0.049 µg/mL, the IC80 [20] was 0.107 µg/mL and the MPI [20] was 100. The IC50 [21] was 0.121 µg/mL, the IC80 [21] was 0.742 µg/mL and the MPI [21] was 99. For the same substance, the IC50 [22] was 0.473 µg/mL, the IC80 [22] was 2.41 µg/mL and the MPI [22] was 100. For the same substance, the IC50 [23] was 0.045 µg/mL, the IC80 [23] was 0.131 µg/mL and the MPI [23] was 100. It also gave an IC50 [24] of 0.185 µg/mL, an IC80 [24] of 0.748 µg/mL and an MPI [24] of 100. It also gave an IC50 [25] of 3.76 µg/mL, an IC80 [25] of 15.7 µg/mL and an MPI [25] of 93. The IC50 [26] was 0.105 µg/mL, the IC80 [26] was 0.374 µg/mL and the MPI [26] was 100. The IC50 [27] was 0.505 µg/mL, the IC80 [27] was 4.23 µg/mL and the MPI [27] was 97. The IC50 [28] was 0.329 µg/mL, the IC80 [28] was 1.14 µg/mL and the MPI [28] was 100. The IC50 [29] was 0.022 µg/mL, the IC80 [29] was 0.088 µg/mL and the MPI [29] was 100. The IC50 [30] was 0.108 µg/mL, the IC80 [30] was 0.292 µg/mL and the MPI [30] was 100. The IC50 [31] was 0.125 µg/mL, the IC80 [31] was 0.417 µg/mL and the MPI [31] was 100. It also gave an IC50 [32] of 0.209 µg/mL, an IC80 [32] of 1.04 µg/mL and an MPI [32] of 100. The IC50 [33] was 42.4 µg/mL, the IC80 [33] was > 50 µg/mL and the MPI [33] was 56. For the same substance, the IC50 [34] was 0.199 µg/mL, the IC80 [34] was 0.726 µg/mL and the MPI [34] was 100. For the same substance, the IC50 [35] was 0.144 µg/mL, the IC80 [35] was 0.539 µg/mL and the MPI [35] was 100. For the same substance, the IC50 [36] was 0.257 µg/mL, the IC80 [36] was 0.853 µg/mL and the MPI [36] was 100. The IC50 [37] was 0.071 µg/mL, the IC80 [37] was 0.239 µg/mL and the MPI [37] was 100.
